Key:
GST-fused DOR C-tail [1] = experiment: GST-pull down, DOR C-tail; assay type: binding; details: among the opioid receptors
Method in brief: (§1)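 Radiolabelled GASPs ([35S]-Met, coupled transcription/translation) were pulled down by bead-immobilized GST-receptor C-tails, 1 h, 4°C, in 20 mM Tris-HCl pH 7.4, 150 mM NaCl, 1% Triton X-100, 10% glycerol. After five washes, retained GASP was imaged by phosphorimager; values are means of ≥3 experiments.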

[2] = system: GST-fused TGFβ (type III transforming growth factor β receptor) C-tail; experiment: GST-pull down, TGFβ C-tail; assay type: binding; details: non-GPCR control
Method in brief: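 Phosphorimager quantification of [35S]-labelled GASP retained on GST-fused receptor C-tails after SDS-PAGE. Binding: glutathione-bead-bound fusions plus in vitro translated GASP, 1 h at 4°C, pH 7.4 Tris/NaCl/EDTA/DTT buffer with 1% Triton X-100. Means of at least three independent experiments.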

GST-fused CNR2 C-tail = experiment: GST-pull down, CNR2 C-tail; assay type: binding; details: central domain compared to full-length GASP-1
Procedure: (§2) cDNAs encoding the cytoplasmic C-tail of 14 GPCRs and 2 one-transmembrane receptors were cloned into the pGEX-2T prokaryotic expression vector downstream the GST sequence. […]
(§3) GST-fusion proteins were immobilized on glutathione-coupled Sepharose beads (GE Healthcare) for 1 h at 4°C and incubated with [^35S]-labelled in vitro translated GASP proteins or their truncated or mutated forms in ice-cold binding buffer containing: 20 mM Tris-HCl pH 7.4, 150 mM NaCl, 1 mM EDTA, 1 mM DTT, 10% glycerol and 1% Triton X-100. […] The supernatants were then analyzed by SDS-PAGE, the gels were stained with Coomassie blue to visualize GST-fusion proteins, dried and analyzed using a Phosphor-imager (Personal Molecular Imager FX, Biorad) to visualize [^35S]-labelled GASPs. Quantification was performed with the Quantity One software (Biorad). GST-pull down quantification data were analyzed using GraphPad Prism 4.03 (GraphPad Software). Quantifications presented are means of at least three independent experiments.

GST-fused GPCR C-tails = experiment: GST-pull down, GPCR C-tails; assay type: binding
Method in brief: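 GST-fused receptor C-tails, expressed in E. coli BL21 and immobilised on glutathione-Sepharose at saturating levels, were incubated 1 h at 4°C with [^35S]-labelled in vitro translated GASP proteins in pH 7.4 Tris buffer with 1% Triton X-100. Bound GASPs were resolved by SDS-PAGE and quantified by phosphor-imaging; means of ≥3 experiments.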

[3] = system: GST-fused IGF1 (insulin growth factor I receptor) C-tail; experiment: GST-pull down, IGF1 C-tail; assay type: binding; details: non-GPCR control
Method in brief: as §1

GST-fused ADRB2 C-tail = experiment: GST-pull down, ADRB2 C-tail; assay type: binding; details: central domain compared to full-length GASP-1
Procedure: as §2, §3

GST-fused FZ4 C-tail = experiment: GST-pull down, FZ4 C-tail; assay type: binding; details: strong = >10% of GASP input
Procedure: as §2, §3

GST-fused ADRB1 C-tail [4] = experiment: GST-pull down, ADRB1 C-tail; assay type: binding; details: percent of input; data not shown
From the text: cDNAs encoding the cytoplasmic C-tail of 14 GPCRs and 2 one-transmembrane receptors were cloned into the pGEX-2T prokaryotic expression vector downstream the GST sequence. The following pGEX constructs were engineered: pGEX-DOR encoding residues 314–372 of the δ-opioid receptor (referring to Swiss-Prot accession number U10504), pGEX-MOR encoding residues 334–400 of the µ-opioid receptor (L29301), pGEX-KOR encoding residues 326–380 of the κ–opioid receptor (U17298), pGEX-ORL1 encoding residues 315–370 of the opioid receptor-like 1 (X77130), pGEX-M1 encoding residues 414–460 of the muscarinic M1 acetylcholine receptor (X52068), pGEX-M2 encoding residues 436–466 of the muscarinic M2 acetylcholine receptor (M16404), pGEX- ADRB1 encoding residues 373–477 of the β1 adrenergic receptor (J03019), pGEX-ADRB2 encoding residues 322–413 of the β2 adrenergic receptor (P07550), pGEX-CALCR encoding residues 407–490 of the calcitonin receptor (L00587), pGEX-CNR2 encoding residues 295–360 of the cannabinoid type 2 receptor (P34972), pGEX-5HT7 encoding residues 380–445 of the 5-hydroxytryptamine 7 receptor (L21195), pGEX-H2 encoding residues 284–349 of the histamine 2 receptor (S57565), pGEX-TXA2 encoding residues 304–343 of the α isoform of the thromboxane A2 receptor (D38081), pGEX-FZ4 encoding residues 493–537 of the frizzled 4 receptor (AB032417), pGEX-TGFβ encoding residues 805–849 of the type III transforming growth factor b receptor (L07594), pGEX-IGF1 encoding residues 1268–1367 of the insulin growth factor I receptor (X04434). Free GST was produced by using the pGEX-4T3 expression vector without insert. The same plasmid was used to clone the cDNA encoding a central domain of GASP-1, corresponding to amino acids 380 to 1073, downstream the GST sequence. All these plasmids were transformed into the Escherichia coli BL21 strain and expression was induced using 1mM of isopropylthiogalactoside for 2 h at 37°C. Bacteria were then pelleted, resuspended in PBS supplemented with cOmplete protease inhibitors (Roche), lysed at 1.5 kbar using a basic Z cell disrupter (constant system) and finally the lysates were cleared by centrifugation (10,000g, 15 min, 4°C).
cDNAs encoding GASP-1 and GASP-2 were cloned into the pcDNA3 eukaryotic expression vectors. cDNAs encoding GASP-3, -6, -7, and -9 were subcloned into pcDNA3.1 vectors. All the clones were controlled by DNA sequencing. The in vitro production was performed by using the TNT Quick-coupled Transcription/Translation T7 kit (Promega) in presence of [^35S]-Methionine according to the instructions from the manufacturer.
GST-fusion proteins were immobilized on glutathione-coupled Sepharose beads (GE Healthcare) for 1 h at 4°C and incubated with [^35S]-labelled in vitro translated GASP proteins or their truncated or mutated forms in ice-cold binding buffer containing: 20 mM Tris-HCl pH 7.4, 150 mM NaCl, 1 mM EDTA, 1 mM DTT, 10% glycerol and 1% Triton X-100. The mixture was incubated for 1 h at 4°C with gentle rocking. The beads were washed five times with the same ice-cold buffer, resuspended in 30 µl SDS-PAGE sample buffer, incubated 10 min at 65°C, and pelleted for 60 s at 3000 g. The supernatants were then analyzed by SDS-PAGE, the gels were stained with Coomassie blue to visualize GST-fusion proteins, dried and analyzed using a Phosphor-imager (Personal Molecular Imager FX, Biorad) to visualize [^35S]-labelled GASPs. Quantification was performed with the Quantity One software (Biorad). GST-pull down quantification data were analyzed using GraphPad Prism 4.03 (GraphPad Software). Quantifications presented are means of at least three independent experiments.

GST-fused DOR C-tail [5] = details: previous study; ref [6]; cited from earlier work
From the text: We therefore hypothesized that this conserved carboxyl-terminal domain could be critical for the interaction of GASPs with GPCRs.

GST-fused ADRB1 C-tail [6] = details: truncated form of GASP-1, amino-acids 898 to 1395; ref [10]; cited from earlier work
From the text: This discrepancy is most likely due to the fact that we used full-length GASPs to perform our experiments, while Heydorn and collaborators used a truncated form of GASP-1, corresponding to amino-acids 898 to 1395. When we performed GST-pull down experiments with a similar fragment of GASP-1 (corresponding to amino acids 924 to 1395), only 5% ...

B1: GASP-1: GPCR-associated sorting protein 1 (protein)
chain: MTGAEIESGAQVKPEKKPGEEVVGGAEIENDVPLVVRPKVRTQAQIMPGARPKNKSKVMPGASTKVETSAVGGARPKSKAKAIPVSRFKEEAQMWAQPRFGAERLSKTERNSQTNIIASPLVSTDSVLVAKTKYLSEDRELVNTDTESFPRRKAHYQAGFQPSFRSKEETNMGSWCCPRPTSKQEASPNSDFKWVDKSVSSLFWSGDEVTAKFHPGNRVKDSNRSMHMANQEANTMSRSQTNQELYIASSSGSEDESVKTPWFWARDKTNTWSGPREDPNSRSRFRSKKEVYVESSSGSEHEDHLESWFGAGKEAKFRSKMRAGKEANNRARHRAKREACIDFMPGSIDVIKKESCFWPEENANTFSRPMIKKEARARAMTKEEAKTKARARAKQEARSEEEALIGTWFWATDESSMADEASIESSLQVEDESIIGSWFWTEEEASMGTGASSKSRPRTDGERIGDSLFGAREKTSMKTGAEATSESILAADDEQVIIGSWFWAGEEVNQEAEEETIFGSWFWVIDAASVESGVGVSCESRTRSEEEEVIGPWFWSGEQVDIEAGIGEEARPGAEEETIFGSWFWAENQTYMDCRAETSCDTMQGAEEEEPIIGSWFWTRVEACVEGDVNSKSSLEDKEEAMIPCFGAKEEVSMKHGTGVRCRFMAGAEETNNKSCFWAEKEPCMYPAGGGSWKSRPEEEEDIVNSWFWSRKYTKPEAIIGSWLWATEESNIDGTGEKAKLLTEEETIINSWFWKEDEAISEATDREESRPEAEEGDIIGSWFWAGEEDRLEPAAETREEDRLAAEKEGIVGSWFGAREETIRREAGSCSKSSPKAEEEEVIIGSWFWEEEASPEAVAGVGFESKPGTEEEEITVGSWFWPEEEASIQAGSQAVEEMESETEEETIFGSWFWDGKEVSEEAGPCCVSKPEDDEEMIVESWFWSRDKAIKETGTVATCESKPENEEGAIVGSWFEAEDEVDNRTDNGSNCGSRTLADEDEAIVGSWFWAGDEAHFESNPSPVFRAICRSTCSVEQEPDPSRRPQSWEEVTVQFKPGPWGRVGFPSISPFRFPKEAASLFCEMFGGKPRNMVLSPEGEDQESLLQPDQPSPEFPFQYDPSYRSVQEIREHLRAKESTEPESSSCNCIQCELKIGSEEFEELLLLMEKIRDPFIHEISKIAMGMRSASQFTRDFIRDSGVVSLIETLLNYPSSRVRTSFLENMIRMAPPYPNLNIIQTYICKVCEETLAYSVDSPEQLSGIRMIRHLTTTTDYHTLVANYMSGFLSLLATGNAKTRFHVLKMLLNLSENLFMTKELLSAEAVSEFIGLFNREETNDNIQIVLAIFENIGNNIKKETVFSDDDFNIEPLISAFHKVEKFAKELQGKTDNQNDPEGDQEN
modifications: [35S]-methionine labelled
**Q.** Which “interaction with DOR C-tail” value (GST-fused DOR C-tail [1]) does the source give for B1 here?
**A.** Its value is “significant interactions”.

**Q.** What about the “interaction with TGFβ C-tail” value [2] of the same molecule?
**A.** The value was “no interaction was detected”.

**Q.** And the “interaction with CNR2 C-tail” value (GST-fused CNR2 C-tail)?
**A.** Its value is “interact with GASP-1”.

**Q.** And the “GASP input retained by GPCR C-tails” value (GST-fused GPCR C-tails; percent of GASP input)?
**A.** The value was greater than 10%.

**Q.** What about the “interaction with GPCR C-tails” value (GST-fused GPCR C-tails; twelve GPCR C-tails) of the same molecule?
**A.** Its value is “medium to strong interactions”.

**Q.** And the “interaction with IGF1 C-tail” value [3]?
**A.** Its value is “no interaction was detected”.

**Q.** And the “interaction with ADRB2 C-tail” value (GST-fused ADRB2 C-tail)?
**A.** Its value is “interact with GASP-1”.

**Q.** What about the “interaction with FZ4 C-tail” value (GST-fused FZ4 C-tail) of the same molecule?
**A.** The value was “strong interaction”.

B2: amino acids 924 to 1395: carboxyl-terminal fragment of GASP-1, contains 2 GASP motifs (protein)
chain: CCVSKPEDDEEMIVESWFWSRDKAIKETGTVATCESKPENEEGAIVGSWFEAEDEVDNRTDNGSNCGSRTLADEDEAIVGSWFWAGDEAHFESNPSPVFRAICRSTCSVEQEPDPSRRPQSWEEVTVQFKPGPWGRVGFPSISPFRFPKEAASLFCEMFGGKPRNMVLSPEGEDQESLLQPDQPSPEFPFQYDPSYRSVQEIREHLRAKESTEPESSSCNCIQCELKIGSEEFEELLLLMEKIRDPFIHEISKIAMGMRSASQFTRDFIRDSGVVSLIETLLNYPSSRVRTSFLENMIRMAPPYPNLNIIQTYICKVCEETLAYSVDSPEQLSGIRMIRHLTTTTDYHTLVANYMSGFLSLLATGNAKTRFHVLKMLLNLSENLFMTKELLSAEAVSEFIGLFNREETNDNIQIVLAIFENIGNNIKKETVFSDDDFNIEPLISAFHKVEKFAKELQGKTDNQNDPEGDQEN
modifications: [35S]-methionine labelled
**Q.** For B2, which “GASP-1 fragment input retained by ADRB1 C-tail” value (GST-fused ADRB1 C-tail [4]) is on record?
**A.** Its value is 5%.

**Q.** What about the “interaction with the DOR C-tail” value (GST-fused DOR C-tail [5]) of the same molecule?
**A.** Its value is “strong interaction”.

B3: amino-acids 898 to 1395: truncated form of GASP-1 used by Heydorn and collaborators (protein, UniProt Q5JY77 898-1395, looked up, fragment)
chain: ESETEEETIFGSWFWDGKEVSEEAGPCCVSKPEDDEEMIVESWFWSRDKAIKETGTVATCESKPENEEGAIVGSWFEAEDEVDNRTDNGSNCGSRTLADEDEAIVGSWFWAGDEAHFESNPSPVFRAICRSTCSVEQEPDPSRRPQSWEEVTVQFKPGPWGRVGFPSISPFRFPKEAASLFCEMFGGKPRNMVLSPEGEDQESLLQPDQPSPEFPFQYDPSYRSVQEIREHLRAKESTEPESSSCNCIQCELKIGSEEFEELLLLMEKIRDPFIHEISKIAMGMRSASQFTRDFIRDSGVVSLIETLLNYPSSRVRTSFLENMIRMAPPYPNLNIIQTYICKVCEETLAYSVDSPEQLSGIRMIRHLTTTTDYHTLVANYMSGFLSLLATGNAKTRFHVLKMLLNLSENLFMTKELLSAEAVSEFIGLFNREETNDNIQIVLAIFENIGNNIKKETVFSDDDFNIEPLISAFHKVEKFAKELQGKTDNQNDPEGDQEN
**Q.** For B3, which “interaction of GASP-1 with ADRB1 C-tail” value (GST-fused ADRB1 C-tail [6]) is on record?
**A.** Its value is “low interaction”.

Reference: article PMC3575409, “Identification of a Novel Protein-Protein Interaction Motif Mediating Interaction of GPCR-Associated Sorting Proteins with G Protein-Coupled Receptors” (PLoS ONE, 2013)
